Assay [1] has as its target CD16A on human primary NK cells (human) (UniProt P08637). Nature of the assay: flow cytometry (MFI, PE-anti-human Fc) on human primary NK cells, donor SLB190071. A general note: A flow cytometer gives signals particle by particle.
Assay [2] has as its target human CD16A (type 158V) on GS-CHO cells (human) (UniProt P08637). Put plainly: flow cytometry (MFI, PE-anti-human Fc) on GS-CHO cells expressing human CD16A (type 158V).
Assay [3] deals with cynomolgus monkey CD16A protein (cynomolgus monkey) (UniProt Q8SPW2). Nature of the assay: BLI (ForteBio), antibody on Protein A sensor, antigen 100 nM, 1:1 model. Background: BLI is a label-free optical method that tracks binding on a fibre tip over time.
Assay [4] has as its target human CD16A-158V protein (human) (UniProt P08637). Described as above.
In assay [5] the target is human CD16A-158F protein (human) (UniProt P08637). The description is as above.
The target of assay [6] is CD16A on human primary NK cells (human) (UniProt P08637). Nature of the assay: flow cytometry (MFI, PE-anti-human Fc) on human primary NK cells, donor SLB190084.
Assay [7] addresses CD16A-158V-G129D (human). Nature of the assay: BLI (ForteBio), method of Example 3, mutant antigen.

For 1 molecule, EC50 and Kd results are on record in US20240101677A1.

Chain of CD16A on human primary NK cells (human) (P08637 17-254): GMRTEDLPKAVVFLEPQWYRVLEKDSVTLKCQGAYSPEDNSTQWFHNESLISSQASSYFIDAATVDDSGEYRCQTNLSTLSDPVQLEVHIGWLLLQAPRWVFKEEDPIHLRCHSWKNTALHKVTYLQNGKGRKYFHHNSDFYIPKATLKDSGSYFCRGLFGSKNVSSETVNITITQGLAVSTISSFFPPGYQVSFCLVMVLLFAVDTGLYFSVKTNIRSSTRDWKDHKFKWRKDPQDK
Chain of human CD16A-158F protein (human) (P08637 17-208 limits assumed): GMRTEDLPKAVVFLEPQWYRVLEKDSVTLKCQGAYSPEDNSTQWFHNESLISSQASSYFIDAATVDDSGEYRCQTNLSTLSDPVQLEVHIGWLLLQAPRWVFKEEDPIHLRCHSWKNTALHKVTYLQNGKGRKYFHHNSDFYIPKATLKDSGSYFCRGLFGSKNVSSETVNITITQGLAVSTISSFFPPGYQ
Chain of human CD16A (type 158V) on GS-CHO cells (human) (P08637 17-254 F176V): as the sequence (P08637 17-254) above, with F160V counted along it
Chain of cynomolgus monkey CD16A protein (cynomolgus monkey) (Q8SPW2 17-208 limits assumed): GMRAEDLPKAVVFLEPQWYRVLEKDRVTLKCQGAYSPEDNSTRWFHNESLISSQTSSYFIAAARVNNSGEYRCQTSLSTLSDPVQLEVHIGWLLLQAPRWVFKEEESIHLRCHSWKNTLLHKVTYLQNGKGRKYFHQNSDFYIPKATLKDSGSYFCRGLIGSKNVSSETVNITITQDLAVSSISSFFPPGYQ
Chain of CD16A-158V-G129D (human) (chain, as listed by the source G129D G129D limits assumed): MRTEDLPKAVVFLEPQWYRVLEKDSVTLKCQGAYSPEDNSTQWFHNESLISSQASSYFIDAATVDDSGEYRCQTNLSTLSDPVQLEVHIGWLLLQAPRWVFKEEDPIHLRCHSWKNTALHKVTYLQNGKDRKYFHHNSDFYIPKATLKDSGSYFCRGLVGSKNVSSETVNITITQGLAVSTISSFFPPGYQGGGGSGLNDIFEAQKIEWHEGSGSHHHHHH
Chain of human CD16A-158V protein (human) (P08637 17-208 F176V limits assumed): as the sequence (P08637 17-208 limits assumed) above, with F160V counted along it

B1: 4LS21 antibody (CD16A humanized antibody 4LS21 from Affimed Therapeutics AG, in the form of ScFv-Fc) (Fc fusion, not shown: a dimerising Fc or GST; small tags and cut ends)
VH: QVQLVQSGAEVKKPGESLKVSCKASGYTFTSYYMHWVRQAPGQGLEWMGAIEPMYGSTSYAQKFQGRVTMTRDTSTSTVYMELSSLRSEDTAVYYCARGSAYYYDFADYWGQGTLVTVSS
VL: SYVLTQPSSVSVAPGQTATISCGGHNIGSKNVHWYQQRPGQSPVLVIYQDNKRPSGIPERFSGSNSGNTATLTISGTQAMDEADYYCQVWDNYSVLFGGGTKLTVL
With B1, the 50% effective concentration (EC50) in assay [1] stood at 2.64 nM; in assay [2] it was 11.8 nM; in assay [6], 15.6 nM. For the same molecule, the dissociation constant Kd in assay [3] turned out to be 7.94 nM; in assay [4] it was 7.75 nM; in assay [5], 4.75 nM; in assay [7], 4.63 nM.

By EC50 is commonly meant the concentration needed to bring the measured effect to its halfway point. What is called Kd is a measure of binding affinity in units of concentration.
